{
  "source": "patent US20220034872",
  "test_system": "GST fusion recombinant OCT4 protein",
  "data": [
    {"substance": "GST fusion recombinant CSNK2A1", "values": [
      {"measurement": "in vitro kinase assay, OCT4 phosphorylation read by SDS-PAGE and western blotting", "value": "in the presence of OCT4 and CSNK2A1, OCT4 phosphorylation was recognized by a phosphorylated antibody"}
    ]}
  ]
}
